Patent CN108690134A (UNIV XIAMEN; YANG SHENG TANG CO LTD, dated 2018)

B1: 人源化抗体M3D (antibody, V domains shown)
VH: QVQLQESGPGLVKPSGTLSLTCAVSGVSISSPYDWTWVRQPPGKGLEWIGRIHGNGGSTSYNPSLKSRVTISVDKSKNQFSLKLSSVTAADTAVYYCVRDETWGQGTLVTVSS
VL: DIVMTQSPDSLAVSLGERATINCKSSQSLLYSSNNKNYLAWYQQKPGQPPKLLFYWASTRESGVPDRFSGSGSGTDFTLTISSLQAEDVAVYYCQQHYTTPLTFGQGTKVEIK
notes: also called humanized M3-23
B2: 人源化抗体M1D (antibody, V domains shown)
VH: QVQLQESGPGLVKPSETLSLTCTVSGGSITSNFWSWIRQPPGKGLEWIGYISGSGTYTDYNPSLKSRVTISVDTSKNQFSLKLSSVTAADTAVYYCARSHDYGSNDYAFDFWGQGTTVTVSS
VL: DIQMTQSPSSLSASVGDRVTITCRATQDISSSLNWYQQKPGKAPKLLIYYANRLQSGVPSRFSGSGSGTDFTLTISSLQPEDFATYYCQQYHSLPLTFGGGTKVEIK
notes: also called humanized M1-23

Target: T1, HBsAg (乙肝表面抗原) (Hepatitis B virus)
T1 chain: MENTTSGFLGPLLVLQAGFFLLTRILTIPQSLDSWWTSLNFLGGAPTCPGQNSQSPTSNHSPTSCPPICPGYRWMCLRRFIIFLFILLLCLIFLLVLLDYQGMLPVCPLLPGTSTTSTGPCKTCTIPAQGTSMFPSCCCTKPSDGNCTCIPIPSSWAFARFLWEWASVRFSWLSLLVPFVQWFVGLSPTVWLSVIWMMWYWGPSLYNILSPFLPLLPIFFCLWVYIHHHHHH
Test: SPR, Biacore 3000, HBsAg immobilised on CM5 chip (2400 RU), antibody as analyte from 100 nM in 2-fold dilutions

| Binder | Kd [nM] |
| --- | --- |
| B1 | 1.12 |
| B2 | 1.06 |
